Results from publication PMC9513256.
Primed or numbered codes have the meaning given here. Where no end group is shown, it is not given here. PEG2′ = not defined here

Target: Hedgehog acyltransferase (Hhat), triple tagged (HA-FLAG-His) WT (UniProt Q5VTY9)
UniProt Q5VTY9, sequence (Q5VTY9 whole entry): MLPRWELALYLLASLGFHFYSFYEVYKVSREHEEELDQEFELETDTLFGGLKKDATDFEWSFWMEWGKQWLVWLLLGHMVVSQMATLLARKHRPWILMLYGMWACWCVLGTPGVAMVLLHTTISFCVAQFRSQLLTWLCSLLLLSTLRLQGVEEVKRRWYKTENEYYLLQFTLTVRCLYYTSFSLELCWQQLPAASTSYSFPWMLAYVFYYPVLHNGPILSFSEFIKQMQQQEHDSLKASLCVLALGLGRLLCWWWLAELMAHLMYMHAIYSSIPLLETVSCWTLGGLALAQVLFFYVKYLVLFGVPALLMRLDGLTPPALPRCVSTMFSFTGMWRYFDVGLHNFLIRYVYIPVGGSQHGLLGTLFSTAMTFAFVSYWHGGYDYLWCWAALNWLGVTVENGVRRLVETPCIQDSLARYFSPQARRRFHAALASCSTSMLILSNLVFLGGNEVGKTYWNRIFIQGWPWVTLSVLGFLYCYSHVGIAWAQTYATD

apparent Km for Shh peptide, Hhat-mediated NBD-fatty acylation of Shh peptide (initial rates, 10 min, 37 °C), Shh titrated in the presence of 25 μM NBD-myristoyl-CoA (14:0): 10.7 μM Shh
apparent Km for Shh peptide, Hhat-mediated NBD-fatty acylation of Shh peptide (initial rates, 10 min, 37 °C), Shh titrated in the presence of 25 μM NBD-oleoyl-CoA (18:1): 19.7 μM Shh
apparent Km for Shh peptide, Hhat-mediated NBD-fatty acylation of Shh peptide (initial rates, 10 min, 37 °C), Shh titrated in the presence of 25 μM NBD-palmitoleoyl-CoA (16:1): 5 μM Shh
apparent Km for Shh peptide, Hhat-mediated NBD-fatty acylation of Shh peptide (initial rates, 10 min, 37 °C), Shh titrated in the presence of 25 μM NBD-palmitoyl-CoA (16:0): 10.4 μM Shh
B1: biotinylated WT Shh peptide, …-(PEG2)-K(Biotin)-NH2 (peptide)
peptide: CGPGRGFGKR-{PEG2′-K(Biotin)-NH2}
